Measured values reported in US20190071505A1 (UNIVERSITY OF NORTH TEXAS HEALTH SCIENCE CENTER, published 2019).

T1: NK cell inhibitory receptor NKRP1A (CD161) (human, UniProt Q12918 1-225)
T1 sequence (looked up): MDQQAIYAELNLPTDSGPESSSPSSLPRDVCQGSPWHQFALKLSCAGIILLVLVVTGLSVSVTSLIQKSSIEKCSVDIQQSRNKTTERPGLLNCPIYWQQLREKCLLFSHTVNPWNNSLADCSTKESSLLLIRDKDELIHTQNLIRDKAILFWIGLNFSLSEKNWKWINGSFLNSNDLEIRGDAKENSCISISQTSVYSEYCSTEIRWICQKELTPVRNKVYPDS

B1: Lectin-like transcript 1 (LLT1) (ligand)
chain: MHDSNNVEKDITPSELPANPGCLHSKEHSIKATLIWRLFFLIMFLTIIVCGMVAALSAIRANCHQEPSVCLQAACPESWIGFQRKCFYFSDDTKNWTSSQRFCDSQDADLAQVESFQELNFLLRYKGPSDHWIGLSREQGQPWKWINGTEWTRQFPILGAGECAYLNDKGASSARHYTERKWICSKSDIHV

What was measured:
[1] = molecular target: T1, NK cell inhibitory receptor NKRP1A …; assay: cell-based or functional assay
[2] = molecular target: B1; assay: flow cytometry on DU145 cells (endogenous LLT1), PE goat anti-mouse IgG secondary, ratio to mIgG1 isotype control; clone taken from the FIG. 2 legend
[3] = molecular target: B1; assay: flow cytometry on 22Rv1 cells (endogenous LLT1), PE goat anti-mouse IgG secondary, ratio to mIgG1 isotype control; clone taken from the FIG. 2 legend

| Binder | percent of MDA-MB-436 LLT1 siRNA-transfected cells killed by NK cells, 5:1 E:T ratio (51Cr release) [1] [%] | percent of MDA-MB-436 LLT1 siRNA-transfected cells killed by NK cells, 25:1 E:T ratio (51Cr release) [1] [%] | percent of MDA-MB-436 scramble siRNA-transfected cells killed by NK cells, 5:1 E:T ratio (51Cr release) [1] [%] | percent of MDA-MB-436 scramble siRNA-transfected cells killed by NK cells, 25:1 E:T ratio (51Cr release) [1] [%] | MFIR (mean fluorescence intensity ratio) [2] | MFIR (mean fluorescence intensity ratio) [3] |
| --- | --- | --- | --- | --- | --- | --- |
| B1 | 21.8 | 63.4 | 18.9 | 42.2 |  |  |
| mouse anti-human LLT1 mAb (clone #2E5) (antibody, V domains shown, Mouse monoclonal antibody from hybridoma 2E5; It was detected with a PE-conjugated goat anti-mouse IgG secondary antibody; also called 2E5 mAb) VH: EVQLQQSGADLVKPGASVKLSCTASGFNIKDTYMHWVIQRPEQGLDWIGRIDPANGNTNYDPKFRAKATITADTSSNTAYLQLSSLTSDDTAVYYCAGMDYHFDFWGQGTTLTVSS VL: DIVMTQSPATLSVTPGDRVSLSCRASQSISDYLHWYQQKSHESPRLLIKYASQSISGIPSRFSGSGSGSDFTLSINSVEPEDVGVFYCQNGHSFPLTFGAGTKLELRR |  |  |  |  | 12 | 14.4 |
